Data: patent publication US20190134153A1, “IMMUNOMODULATORY EFFECT OF INHALED KINASE INHIBITOR PEPTIDES IN LUNG” (MOERAE MATRIX, INC., priority 2017, published 2019)

Key:
Assay in all cases: Kinase Profiling Assay
Type in all cases: biochemical
Conditions in all cases: 100 μM
PKCι(h) = target: T1, PKCι(h) (Homo sapiens, UniProt P41743)
T1 sequence (P41743 1-596): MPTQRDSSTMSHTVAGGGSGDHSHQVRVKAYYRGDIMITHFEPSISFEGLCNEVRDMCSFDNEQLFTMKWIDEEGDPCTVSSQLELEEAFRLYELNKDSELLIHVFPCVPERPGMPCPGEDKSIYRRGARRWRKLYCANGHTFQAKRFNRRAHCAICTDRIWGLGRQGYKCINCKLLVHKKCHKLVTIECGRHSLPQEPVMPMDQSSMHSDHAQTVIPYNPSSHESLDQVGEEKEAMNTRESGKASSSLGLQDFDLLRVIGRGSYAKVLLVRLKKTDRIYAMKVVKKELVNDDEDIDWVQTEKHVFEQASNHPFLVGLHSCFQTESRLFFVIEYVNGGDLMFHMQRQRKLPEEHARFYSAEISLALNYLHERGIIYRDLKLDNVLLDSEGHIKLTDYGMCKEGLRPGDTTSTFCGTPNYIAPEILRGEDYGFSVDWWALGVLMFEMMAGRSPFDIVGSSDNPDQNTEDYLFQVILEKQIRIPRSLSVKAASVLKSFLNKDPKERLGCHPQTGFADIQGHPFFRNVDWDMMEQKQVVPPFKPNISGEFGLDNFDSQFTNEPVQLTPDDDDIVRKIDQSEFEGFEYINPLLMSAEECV

BrSK1(h) = target: T2, BrSK1(h) (Homo sapiens, UniProt Q8TDC3)
T2 sequence (Q8TDC3 1-778): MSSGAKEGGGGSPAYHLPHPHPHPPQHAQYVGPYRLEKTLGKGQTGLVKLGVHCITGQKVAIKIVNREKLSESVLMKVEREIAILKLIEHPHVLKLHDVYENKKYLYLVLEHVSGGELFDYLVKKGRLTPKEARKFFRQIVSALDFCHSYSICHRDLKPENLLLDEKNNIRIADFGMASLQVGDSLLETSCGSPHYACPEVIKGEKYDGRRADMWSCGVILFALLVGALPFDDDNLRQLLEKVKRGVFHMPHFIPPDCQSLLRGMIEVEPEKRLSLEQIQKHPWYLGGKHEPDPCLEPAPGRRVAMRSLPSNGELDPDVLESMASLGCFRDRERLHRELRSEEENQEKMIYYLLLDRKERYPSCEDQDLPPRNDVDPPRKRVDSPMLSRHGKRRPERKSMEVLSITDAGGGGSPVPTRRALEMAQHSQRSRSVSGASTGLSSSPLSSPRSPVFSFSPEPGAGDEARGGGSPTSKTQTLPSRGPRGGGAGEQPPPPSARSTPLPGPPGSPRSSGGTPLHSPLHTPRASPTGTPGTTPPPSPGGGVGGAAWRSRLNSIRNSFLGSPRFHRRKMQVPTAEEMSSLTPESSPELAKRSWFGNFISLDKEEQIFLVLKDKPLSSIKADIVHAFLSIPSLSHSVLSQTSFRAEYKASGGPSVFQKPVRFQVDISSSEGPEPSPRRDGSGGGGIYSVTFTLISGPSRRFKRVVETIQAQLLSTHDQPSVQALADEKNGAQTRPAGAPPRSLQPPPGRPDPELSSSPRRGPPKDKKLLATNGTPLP

EphA5(h) = EphA5(h) (Homo sapiens, UniProt P54756)
EphA5(h), sequence (P54756 25-1037): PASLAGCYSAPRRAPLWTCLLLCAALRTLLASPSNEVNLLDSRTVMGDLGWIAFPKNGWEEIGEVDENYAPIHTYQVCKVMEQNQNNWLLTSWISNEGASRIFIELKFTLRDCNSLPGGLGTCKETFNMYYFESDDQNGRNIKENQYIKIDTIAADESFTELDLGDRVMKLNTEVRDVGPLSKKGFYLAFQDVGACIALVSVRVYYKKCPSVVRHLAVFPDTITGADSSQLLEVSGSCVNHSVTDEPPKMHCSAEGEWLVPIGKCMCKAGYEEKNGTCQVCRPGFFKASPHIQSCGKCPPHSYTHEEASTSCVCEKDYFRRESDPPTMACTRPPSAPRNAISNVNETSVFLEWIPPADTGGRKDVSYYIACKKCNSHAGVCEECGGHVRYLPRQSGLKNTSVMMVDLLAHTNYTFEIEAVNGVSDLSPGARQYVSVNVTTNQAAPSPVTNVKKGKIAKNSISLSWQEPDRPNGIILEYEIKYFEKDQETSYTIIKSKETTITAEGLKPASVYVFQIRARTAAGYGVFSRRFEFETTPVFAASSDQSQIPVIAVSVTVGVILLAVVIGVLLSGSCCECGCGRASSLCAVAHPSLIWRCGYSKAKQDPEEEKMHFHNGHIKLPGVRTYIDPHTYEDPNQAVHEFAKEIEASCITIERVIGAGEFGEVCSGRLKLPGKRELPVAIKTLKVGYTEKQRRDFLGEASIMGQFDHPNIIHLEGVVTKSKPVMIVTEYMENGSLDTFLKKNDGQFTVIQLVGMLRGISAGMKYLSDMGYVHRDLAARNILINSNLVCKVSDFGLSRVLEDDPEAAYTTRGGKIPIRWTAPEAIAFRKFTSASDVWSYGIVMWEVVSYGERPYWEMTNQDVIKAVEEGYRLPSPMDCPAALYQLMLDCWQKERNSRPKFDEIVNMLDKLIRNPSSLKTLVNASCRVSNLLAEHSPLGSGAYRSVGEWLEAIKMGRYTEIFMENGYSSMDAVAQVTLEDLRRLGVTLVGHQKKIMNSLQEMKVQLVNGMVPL

TAK1(h) = target: T3, TAK1(h) (Homo sapiens, UniProt O43318)
T3 sequence (O43318 1-303 limits assumed): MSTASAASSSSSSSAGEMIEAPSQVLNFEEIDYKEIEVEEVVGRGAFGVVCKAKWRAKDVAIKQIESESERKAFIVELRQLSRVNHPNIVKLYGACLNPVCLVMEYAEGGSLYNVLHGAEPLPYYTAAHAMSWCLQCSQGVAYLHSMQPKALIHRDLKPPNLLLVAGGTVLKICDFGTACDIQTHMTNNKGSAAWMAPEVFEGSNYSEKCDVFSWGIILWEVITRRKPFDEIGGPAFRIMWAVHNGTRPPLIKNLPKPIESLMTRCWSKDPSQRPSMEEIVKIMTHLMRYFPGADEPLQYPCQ

DRAK1(h) = target: T4, DRAK1(h) (Homo sapiens, UniProt Q9UEE5)
T4 sequence (Q9UEE5 1-414): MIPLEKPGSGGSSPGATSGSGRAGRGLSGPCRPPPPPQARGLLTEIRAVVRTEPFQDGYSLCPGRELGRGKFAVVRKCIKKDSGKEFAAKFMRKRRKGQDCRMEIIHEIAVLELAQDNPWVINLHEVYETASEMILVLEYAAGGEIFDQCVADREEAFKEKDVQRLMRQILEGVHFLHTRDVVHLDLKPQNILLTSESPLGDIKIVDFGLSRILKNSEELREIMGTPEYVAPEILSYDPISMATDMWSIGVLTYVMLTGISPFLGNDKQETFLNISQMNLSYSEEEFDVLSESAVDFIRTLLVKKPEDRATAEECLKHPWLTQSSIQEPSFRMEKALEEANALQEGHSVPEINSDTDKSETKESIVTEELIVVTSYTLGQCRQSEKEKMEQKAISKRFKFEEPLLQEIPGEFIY

HIPK2(h) = HIPK2(h) (Homo sapiens, UniProt Q9H2X6)
HIPK2(h), sequence (Q9H2X6 whole entry): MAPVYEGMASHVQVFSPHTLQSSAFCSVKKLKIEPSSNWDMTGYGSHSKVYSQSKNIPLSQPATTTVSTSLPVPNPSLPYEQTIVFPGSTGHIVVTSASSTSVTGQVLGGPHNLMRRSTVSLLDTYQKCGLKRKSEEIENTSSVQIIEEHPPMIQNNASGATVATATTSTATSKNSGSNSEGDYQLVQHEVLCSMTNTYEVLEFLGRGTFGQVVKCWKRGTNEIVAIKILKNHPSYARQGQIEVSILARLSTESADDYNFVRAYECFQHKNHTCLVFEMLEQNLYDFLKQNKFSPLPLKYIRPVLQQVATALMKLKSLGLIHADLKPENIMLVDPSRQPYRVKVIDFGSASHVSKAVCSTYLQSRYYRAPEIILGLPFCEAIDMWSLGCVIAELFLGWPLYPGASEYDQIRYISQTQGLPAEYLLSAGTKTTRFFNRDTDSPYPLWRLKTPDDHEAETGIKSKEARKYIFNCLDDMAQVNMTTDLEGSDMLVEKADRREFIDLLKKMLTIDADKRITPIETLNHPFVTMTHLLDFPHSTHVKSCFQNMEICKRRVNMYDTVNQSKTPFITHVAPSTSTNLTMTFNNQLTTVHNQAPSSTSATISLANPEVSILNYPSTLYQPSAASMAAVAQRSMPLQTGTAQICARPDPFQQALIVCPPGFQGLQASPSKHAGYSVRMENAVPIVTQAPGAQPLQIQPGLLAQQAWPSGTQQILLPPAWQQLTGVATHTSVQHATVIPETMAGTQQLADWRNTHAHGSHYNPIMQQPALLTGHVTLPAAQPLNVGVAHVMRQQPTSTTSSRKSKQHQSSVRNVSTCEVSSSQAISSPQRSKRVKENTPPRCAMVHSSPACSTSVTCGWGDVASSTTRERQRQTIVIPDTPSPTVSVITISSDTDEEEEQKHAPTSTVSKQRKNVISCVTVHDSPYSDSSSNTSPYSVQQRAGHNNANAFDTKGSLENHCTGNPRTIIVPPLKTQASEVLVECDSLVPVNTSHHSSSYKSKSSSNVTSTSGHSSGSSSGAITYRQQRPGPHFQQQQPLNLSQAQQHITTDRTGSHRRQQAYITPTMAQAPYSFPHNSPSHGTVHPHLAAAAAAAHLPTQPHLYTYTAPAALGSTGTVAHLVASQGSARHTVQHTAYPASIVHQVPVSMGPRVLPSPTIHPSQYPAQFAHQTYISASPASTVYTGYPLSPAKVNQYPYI

FGFR1(h) = FGFR1(h) (Homo sapiens, UniProt P11362)
FGFR1(h), sequence (P11362 22-822): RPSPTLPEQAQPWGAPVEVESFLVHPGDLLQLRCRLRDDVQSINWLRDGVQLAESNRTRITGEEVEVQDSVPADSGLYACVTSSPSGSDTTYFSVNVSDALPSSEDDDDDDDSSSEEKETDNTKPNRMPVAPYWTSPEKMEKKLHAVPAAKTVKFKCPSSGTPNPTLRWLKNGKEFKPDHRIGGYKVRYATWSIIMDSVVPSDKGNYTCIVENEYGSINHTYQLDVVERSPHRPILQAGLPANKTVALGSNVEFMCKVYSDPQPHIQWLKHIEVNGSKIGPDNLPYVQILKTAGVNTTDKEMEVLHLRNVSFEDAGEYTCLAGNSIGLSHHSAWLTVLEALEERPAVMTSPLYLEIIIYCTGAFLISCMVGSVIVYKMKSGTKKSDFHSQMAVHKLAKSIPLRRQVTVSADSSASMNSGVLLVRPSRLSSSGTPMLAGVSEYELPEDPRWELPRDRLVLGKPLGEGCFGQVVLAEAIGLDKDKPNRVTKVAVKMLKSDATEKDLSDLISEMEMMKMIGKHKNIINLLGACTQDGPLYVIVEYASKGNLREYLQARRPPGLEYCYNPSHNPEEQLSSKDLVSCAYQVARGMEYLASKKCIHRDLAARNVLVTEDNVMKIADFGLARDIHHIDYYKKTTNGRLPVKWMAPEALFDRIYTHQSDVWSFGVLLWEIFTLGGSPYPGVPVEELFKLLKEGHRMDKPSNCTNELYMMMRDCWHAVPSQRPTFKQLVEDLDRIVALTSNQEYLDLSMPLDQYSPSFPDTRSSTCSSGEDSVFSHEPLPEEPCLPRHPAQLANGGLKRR

ACK1(h) = ACK1(h) (Homo sapiens, UniProt Q07912)
ACK1(h), sequence (Q07912 whole entry): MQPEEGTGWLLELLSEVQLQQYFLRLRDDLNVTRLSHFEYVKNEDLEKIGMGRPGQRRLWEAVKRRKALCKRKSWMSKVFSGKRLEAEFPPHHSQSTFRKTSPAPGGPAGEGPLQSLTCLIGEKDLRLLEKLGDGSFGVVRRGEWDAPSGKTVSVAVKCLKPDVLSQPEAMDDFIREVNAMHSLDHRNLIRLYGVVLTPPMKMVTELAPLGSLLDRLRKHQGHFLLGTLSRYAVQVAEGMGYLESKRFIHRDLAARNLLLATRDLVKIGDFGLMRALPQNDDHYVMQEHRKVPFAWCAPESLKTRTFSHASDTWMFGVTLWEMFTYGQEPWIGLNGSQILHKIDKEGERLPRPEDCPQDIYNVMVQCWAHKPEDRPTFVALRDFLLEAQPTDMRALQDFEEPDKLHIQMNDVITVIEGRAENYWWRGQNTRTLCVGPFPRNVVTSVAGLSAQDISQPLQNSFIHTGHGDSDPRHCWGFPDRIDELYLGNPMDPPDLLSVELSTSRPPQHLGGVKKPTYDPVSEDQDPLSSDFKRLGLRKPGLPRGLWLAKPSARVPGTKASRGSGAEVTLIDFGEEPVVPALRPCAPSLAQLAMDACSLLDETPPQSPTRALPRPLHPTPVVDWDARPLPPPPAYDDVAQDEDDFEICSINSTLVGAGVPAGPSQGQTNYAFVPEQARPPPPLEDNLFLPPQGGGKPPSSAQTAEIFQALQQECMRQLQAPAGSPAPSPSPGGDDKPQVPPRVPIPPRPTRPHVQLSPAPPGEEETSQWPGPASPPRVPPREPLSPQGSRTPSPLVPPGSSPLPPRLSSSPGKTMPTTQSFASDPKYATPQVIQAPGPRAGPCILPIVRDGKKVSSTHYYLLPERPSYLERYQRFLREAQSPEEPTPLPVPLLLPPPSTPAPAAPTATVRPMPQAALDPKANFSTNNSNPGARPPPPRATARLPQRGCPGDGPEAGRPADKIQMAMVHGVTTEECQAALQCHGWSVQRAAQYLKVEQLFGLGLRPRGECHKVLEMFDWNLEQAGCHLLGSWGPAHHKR

FAKLAARLYRKALARQLGVAA [MMI-0300]
% activity (PKCι(h)): 68% | % activity (BrSK1(h)): 67% | % activity (EphA5(h)): 18% | % activity (TAK1(h)): 122% | % activity (DRAK1(h)): 14% | % activity (HIPK2(h)): 73% | % activity (FGFR1(h)): 55%

HRRIKAWLKKIKALARQLGVAA [MMI-0500]
% activity (PKCι(h)): 7% | % activity (BrSK1(h)): 72% | % activity (EphA5(h)): 42% | % activity (DRAK1(h)): 8% | % activity (HIPK2(h)): 38% | % activity (FGFR1(h)): 18% | % activity (ACK1(h)): 64%

KAFAKLAARLYRKALARQLGVAA [MMI-0400]
% activity (PKCι(h)): 46% | % activity (BrSK1(h)): 76% | % activity (EphA5(h)): 24% | % activity (TAK1(h)): 177% | % activity (DRAK1(h)): 14% | % activity (HIPK2(h)): 90% | % activity (FGFR1(h)): 59% | % activity (ACK1(h)): 95%

YARAAARQARAKALNRQLGVA [MMI-0200]
% activity (PKCι(h)): 97% | % activity (BrSK1(h)): 93% | % activity (EphA5(h)): 123% | % activity (TAK1(h)): 124% | % activity (DRAK1(h)): 34% | % activity (FGFR1(h)): 97% | % activity (ACK1(h)): 97%
